In the supplement of paper PMC10567573:

B1: ANKRD17 (parent)
chain: EVLRRLTSSVSCALDEAAAALTRM

Variants of: B1
Experiment: protein stability index of a GFP-peptide fusion (GPS, HEK-293T) (PSI 1-6); higher = more stable
Conditions: c terminus: a fixed tail appended
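Note: lentivirally expressed fusions sorted by FACS into six bins by GFP to DsRed ratio, PSI derived from sequencing read proportions per bin multiplied by bin number.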

Point of comparison: EVLRRLTSSVSCALDEAYAALTRM [A18Y], protein stability index 1.69. Against it:
- EVLRRLTSSVSEALDEAAAALTRM [C12E] — higher, 3
- EVLRRLTSSVSSALDEAAAALTRM [C12S] — higher, 2.69
- EVLRRLTSSVSYALDEAAAALTRM [C12Y] — lower, 1.65
- EVLRRLTSSVSIALDEAAAALTRM [C12I] — higher, 1.71
- EVLRRLTSSVSHALDEAAAALTRM [C12H] — higher, 4.25
- EVLRRLTSSVSGALDEAAAALTRM [C12G] — higher, 3.18
- EVLRRLTSSVSNALDEAAAALTRM [C12N] — higher, 3.93
- EVLRRLTSSVSAALDEAAAALTRM [C12A] — higher, 3.05
- EVLRRLTSSVSFALDEAAAALTRM [C12F] — higher, 1.78
- EVLRRLTSSVSLALDEAAAALTRM [C12L] — higher, 2.75
- EVLRRLTSSVSVALDEAAAALTRM [C12V] — higher, 2.48
- EVLRRLTSSVSTALDEAAAALTRM [C12T] — higher, 2.97
- EVLRRLTSSVSPALDEAAAALTRM [C12P] — higher, 1.91
- EVLRRLTSSVSMALDEAAAALTRM [C12M] — higher, 1.74
- EVLRRLTSSVSKALDEAAAALTRM [C12K] — higher, 2.73
- EVLRRLTSSVSQALDEAAAALTRM [C12Q] — higher, 2.41
- EVLRRLTSSVSWALDEAAAALTRM [C12W] — higher, 2.27
- EVLRRLTSSVSCALDEAAAILTRM [A20I] — higher, 2.52
- EVLRRLTSSVSCALDEAAAFLTRM [A20F] — lower, 1.65
- EVLRRLTSSVSCALDEAAAWLTRM [A20W] — higher, 2.48
- EVLRRLTSSVSCALDEAAAQLTRM [A20Q] — higher, 3.08
- EVLRRLTSSVSCALDEAAAYLTRM [A20Y] — higher, 3.13
- EVLRRLTSSVSCALDEAAACLTRM [A20C] — higher, 2.73
- EVLRRLTSSVSCALDEAAAKLTRM [A20K] — higher, 2.69
- EVLRRLTSSVSCALDEAAAMLTRM [A20M] — higher, 2.28
- EVLRRLTSSVSCALDEAAAVLTRM [A20V] — higher, 1.91
- EVLRRLTSSVSCALDEAAAELTRM [A20E] — higher, 3.31
- EVLRRLTSSVSCALDEAAALLTRM [A20L] — lower, 1.45
- EVLRRLTSSVSCALDEAAADLTRM [A20D] — lower, 1.65
- EVLRRLTSSVSCALDEAAANLTRM [A20N] — higher, 3.01
- EVLRRLTSSVSCALDEAAARLTRM [A20R] — higher, 2.64
- EVLRRLTSSVSCALDEAAAHLTRM [A20H] — lower, 1.52
- EVLRRLTSSVSCALDRAAAALTRM [E16R] — higher, 2.09
- EVLRRLTSSVSCALDYAAAALTRM [E16Y] — higher, 2.43
- EVLRRLTSSVSCALDAAAAALTRM [E16A] — higher, 2.32
- EVLRRLTSSVSCALDFAAAALTRM [E16F] — higher, 3.12
- EVLRRLTSSVSCALDNAAAALTRM [E16N] — higher, 3
- EVLRRLTSSVSCALDIAAAALTRM [E16I] — higher, 1.97
- EVLRRLTSSVSCALDKAAAALTRM [E16K] — lower, 1.54
- EVLRRLTSSVSCALDQAAAALTRM [E16Q] — higher, 2.56
- EVLRRLTSSVSCALDHAAAALTRM [E16H] — higher, 1.8
- EVLRRLTSSVSCALDTAAAALTRM [E16T] — higher, 1.88
- EVLRRLTSSVSCALDCAAAALTRM [E16C] — higher, 2.46
- EVLRRLTSSVSCALDDAAAALTRM [E16D] — higher, 1.72
- EVLRRLTSSVSCALDSAAAALTRM [E16S] — higher, 2.96
- EVLRRLTSSVSCALDLAAAALTRM [E16L] — higher, 3.18
- EVLRRLTSSVSCALDVAAAALTRM [E16V] — lower, 1.6
- EVLRRLTSSVSCNLDEAAAALTRM [A13N] — the same, 1.69
- EVLRRLTSSVSCSLDEAAAALTRM [A13S] — lower, 1.34
- EVLRRLTSSVSCYLDEAAAALTRM [A13Y] — lower, 1.66
- EVLRRLTSSVSCMLDEAAAALTRM [A13M] — lower, 1.6
- EVLRRLTSSVSCPLDEAAAALTRM [A13P] — lower, 1.37
- EVLRRLTSSVSCLLDEAAAALTRM [A13L] — lower, 1.38
- EVLRRLTSSVSCFLDEAAAALTRM [A13F] — higher, 2.2
- EVLRRLTSSVSCTLDEAAAALTRM [A13T] — higher, 2.38
- EVLRRLTSSVSCWLDEAAAALTRM [A13W] — higher, 2.07
- EVLRRLTSSVSCVLDEAAAALTRM [A13V] — lower, 1.16
- EVLRRLTSSVSCHLDEAAAALTRM [A13H] — higher, 2.42
- EVLRRLTSSVSCELDEAAAALTRM [A13E] — higher, 2.34
- EVLRRLTSSVSCKLDEAAAALTRM [A13K] — higher, 2.55
- EVLRRLTSSVSCQLDEAAAALTRM [A13Q] — lower, 1.59
- EVLRRLTSSVSCCLDEAAAALTRM [A13C] — higher, 2.58
- EVLRRLTSSVSCILDEAAAALTRM [A13I] — higher, 2.26
- EVLRRLTSSVSCRLDEAAAALTRM [A13R] — higher, 2.06
- EVLRRLTSIVSCALDEAAAALTRM [S9I] — higher, 1.97
- EVLRRLTSTVSCALDEAAAALTRM [S9T] — lower, 1.66
- EVLRRLTSNVSCALDEAAAALTRM [S9N] — higher, 1.81
- EVLRRLTSQVSCALDEAAAALTRM [S9Q] — higher, 2.21
- EVLRRLTSWVSCALDEAAAALTRM [S9W] — higher, 2.63
- EVLRRLTSRVSCALDEAAAALTRM [S9R] — higher, 2.69
- EVLRRLTSDVSCALDEAAAALTRM [S9D] — lower, 1.65
- EVLRRLTSYVSCALDEAAAALTRM [S9Y] — lower, 1.58
- EVLRRLTSPVSCALDEAAAALTRM [S9P] — higher, 1.94
- EVLRRLTSMVSCALDEAAAALTRM [S9M] — higher, 2.49
- EVLRRLTSCVSCALDEAAAALTRM [S9C] — higher, 1.87
- EVLRRLTSGVSCALDEAAAALTRM [S9G] — lower, 1.64
- EVLRRLTSEVSCALDEAAAALTRM [S9E] — lower, 1.47
- EVLRRLTSFVSCALDEAAAALTRM [S9F] — higher, 2.38
- EVLRRLTSAVSCALDEAAAALTRM [S9A] — higher, 2.11
- EVLRRLTSSVSCALDEAVAALTRM [A18V] — higher, 1.8
- EVLRRLTSSVSCALDEATAALTRM [A18T] — higher, 2.27
- EVLRRLTSSVSCALDEAQAALTRM [A18Q] — higher, 2.4
- EVLRRLTSSVSCALDEAEAALTRM [A18E] — lower, 1.24
- EVLRRLTSSVSCALDEAGAALTRM [A18G] — higher, 1.85
- EVLRRLTSSVSCALDEAKAALTRM [A18K] — higher, 2.92
- EVLRRLTSSVSCALDEALAALTRM [A18L] — lower, 1.68
- EVLRRLTSSVSCALDEAIAALTRM [A18I] — higher, 2.33
- EVLRRLTSSVSCALDEARAALTRM [A18R] — higher, 2.43
- EVLRRLTSSVSCALDEAMAALTRM [A18M] — higher, 2.25
- EVLRRLTSSVSCALDEANAALTRM [A18N] — higher, 1.8
- EVLRRLTSSVSCALDEADAALTRM [A18D] — higher, 1.89
- EVLRRLTSSVSCALDEAWAALTRM [A18W] — lower, 1.64
- EVLRRLTSSVSCALDEAHAALTRM [A18H] — lower, 1.68
